{"source": "patent US20070299013", "test_system": "pentapeptide DYDYQ (Asp695-Tyr696-Asp697-Tyr698-Gln699 of human factor Va heavy chain)"}
{"substance": "human thrombin", "values": [{"measurement": "activation of factor V by thrombin (cleavage at Arg709), SDS-PAGE and immunoblot, thrombin preincubated with 100 µM peptide", "value": "the pentapeptide is a potent inhibitor of factor V activation by thrombin"}]}
